Measurements reported in patent US20250236663A1 (NEURACLE SCIENCE, published 2025).

Tests used:
[1] = biological target: T1, FAM19A5 fragment 5 mutant peptide F5-4 (#4) (human); assay: ELISA on alanine-substituted F5 peptides (I16 to alanine)
T1 construct: The entry already carries the alanine substitution and Ser for Cys; also called mutant peptide #4
Procedure: Overlapping peptide fragments (F1-F6, see FIG. 9) of the human FAM19A5 protein were synthesized and conjugated to BSA. Binding of the different anti-FAM19A5 antibodies to the BSA-conjugated peptide fragments F1-F6 was determined by Western blot analysis or ELISA assay. For the Western blot analysis, BSA-conjugated FAM19A5 fragments F1-F6 were separated by SDS polyacrylamide gel electrophoresis and transferred to a nitrocellulose membrane by the standard procedure. The membrane was incubated with the anti-FAM19A5 antibody (e.g., 1-65, 2 μg/ml, 1-65-scFv-rabbit Fc-SSS), and the antigen-antibody complexes were detected with the appropriate secondary antibody conjugated with horse-radish peroxidase (anti-rabbit IgG (Fc specific)-HRP, 1:4000 dilution). For the ELISA assay, the following protocol was used. FAM19A5 fragment F1-F6 (diluted to 1 μg/mL in 50 mM carbonate buffer (Biosesang) or to 20 μg/mL for high concentration analysis) were used to coat the wells of 96-well immuno plates (Thermo Scientific) (100 μL/well) overnight at 4° C. and then subsequently washed twice in 1×PBS. The plates were then blocked with the blocking buffer (100 μL/well) for 1 hour at room temperature. […] The absorption value of each of the wells was detected at 492 nm using a 96-well microplate reader (Molecular Device). […]

[2] = biological target: T2, FAM19A5 fragment 5 mutant peptide F5-1 (#1) (human); assay: ELISA on the coated F5 mutant peptide
T2 construct: The entry already carries the alanine substitution and Ser for Cys; also called mutant peptide #1
T2 peptide: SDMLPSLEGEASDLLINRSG
Procedure: (§1) Overlapping peptide fragments (F1-F6, see FIG. 9) of the human FAM19A5 protein were synthesized and conjugated to BSA. Binding of the different anti-FAM19A5 antibodies to the BSA-conjugated peptide fragments F1-F6 was determined by Western blot analysis or ELISA assay. For the Western blot analysis, BSA-conjugated FAM19A5 fragments F1-F6 were separated by SDS polyacrylamide gel electrophoresis and transferred to a nitrocellulose membrane by the standard procedure. The membrane was incubated with the anti-FAM19A5 antibody (e.g., 1-65, 2 μg/ml, 1-65-scFv-rabbit Fc-SSS), and the antigen-antibody complexes were detected with the appropriate secondary antibody conjugated with horse-radish peroxidase (anti-rabbit IgG (Fc specific)-HRP, 1:4000 dilution). For the ELISA assay, the following protocol was used. FAM19A5 fragment F1-F6 (diluted to 1 μg/mL in 50 mM carbonate buffer (Biosesang) or to 20 μg/mL for high concentration analysis) were used to coat the wells of 96-well immuno plates (Thermo Scientific) (100 μL/well) overnight at 4° C. and then subsequently washed twice in 1×PBS. The plates were then blocked with the blocking buffer (100 μL/well) for 1 hour at room temperature. During the 1-hour incubation, the relevant anti-FAM19A5 antibodies were diluted to 1 μg/mL (or 20 μg/mL for high concentration analysis) in the diluent buffer. Once the plates were washed (2× using 1×PBS), the diluted anti-FAM19A5 antibodies were added to the appropriate wells, and the plates were incubated at room temperature for 1 hour. The plates were subsequently washed for a total of five times using the washing buffer. Next, the ODP substrate (prepared by dissolving one ODP tablet (O-phenylenediamine Dihydrochloride, Thermo) into 9 mL of sterilized deionized water and 1 mL of 10× stable Peroxide Stable buffer (Theromo)) was added to each of the wells, and the color change reaction was allowed to occur for 10 minutes. This reaction was stopped by adding 100 μL of 2N H2SO4 (Daejung) to the wells. The absorption value of each of the wells was detected at 492 nm using a 96-well microplate reader (Molecular Device).
(§2) Next, to identify the specific amino acid residues within the epitope fragment F5 that the 1-65 and P2-C12 antibodies bind to, different amino acid residues of the F5 fragment were replaced with alanine as shown in Table 9 (below).

[3] = biological target: T3, FAM19A5 fragment 5 mutant peptide F5-2 (#2) (human); assay: ELISA on the coated F5 mutant peptide
T3 construct: The entry already carries the alanine substitution and Ser for Cys; also called mutant peptide #2
Procedure: as §1, §2

[4] = biological target: T4, FAM19A5 fragment 5 mutant peptide F5-3 (#3) (human); assay: ELISA on the coated F5 mutant peptide
T4 construct: The entry already carries the alanine substitution and Ser for Cys; also called mutant peptide #3
Procedure: as §1, §2

[5] = biological target: T1, FAM19A5 fragment 5 mutant peptide F5-4 …; assay: ELISA on the coated F5 mutant peptide
Procedure: as §1, §2

[6] = biological target: T5, FAM19A5 fragment 5 mutant peptide F5-5 (#5) (human); assay: ELISA on the coated F5 mutant peptide
T5 construct: The entry already carries the alanine substitution and Ser for Cys; also called mutant peptide #5
T5 peptide: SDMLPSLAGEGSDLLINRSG
Procedure: as §1, §2

[7] = biological target: T6, FAM19A5 fragment 5 mutant peptide F5-6 (#6) (human); assay: ELISA on the coated F5 mutant peptide
T6 construct: The entry already carries the alanine substitution and Ser for Cys; also called mutant peptide #6
Procedure: as §1, §2

[8] = biological target: T7, FAM19A5 fragment 5 mutant peptide F5-7 (#7) (human); assay: ELISA on the coated F5 mutant peptide
T7 construct: The entry already carries the alanine substitution and Ser for Cys; also called mutant peptide #7
Procedure: as §1, §2

[9] = biological target: T8, FAM19A5 fragment 5 mutant peptide F5-8 (#8) (human); assay: ELISA on the coated F5 mutant peptide
T8 construct: The entry already carries the alanine substitution and Ser for Cys; also called mutant peptide #8
T8 peptide: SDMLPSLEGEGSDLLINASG
Procedure: as §1, §2

FAM19A5 mutant M6 = biological target: T9, FAM19A5 mutant M6 (human); assay: ELISA on phage-displayed FAM19A5 mutants; y axis without label
T9 construct: FAM19A5 with region 6 replaced by the consensus of FAM19A1-4; The entry already carries the changes
T9 chain: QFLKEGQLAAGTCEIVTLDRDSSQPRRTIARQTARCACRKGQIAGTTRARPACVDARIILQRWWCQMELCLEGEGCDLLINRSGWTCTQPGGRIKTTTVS

FAM19A5 mutant M7 = biological target: T10, FAM19A5 mutant M7 (human); assay: as above
T10 construct: FAM19A5 with region 7 replaced by the consensus of FAM19A1-4; The entry already carries the changes
T10 chain: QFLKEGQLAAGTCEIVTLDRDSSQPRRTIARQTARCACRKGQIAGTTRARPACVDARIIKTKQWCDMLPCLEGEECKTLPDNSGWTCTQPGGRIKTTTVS

FAM19A5 mutant M8 = biological target: T11, FAM19A5 mutant M8 (human); assay: as above
T11 construct: FAM19A5 with region 8 replaced by the consensus of FAM19A1-4; The entry already carries the changes
T11 chain: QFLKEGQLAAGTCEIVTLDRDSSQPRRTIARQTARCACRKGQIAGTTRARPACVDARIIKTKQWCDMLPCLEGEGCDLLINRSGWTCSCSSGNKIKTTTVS

FAM19A5-M1 = biological target: T12, FAM19A5-M1; assay: ELISA on phage-displayed FAM19A5 mutants; y axis without label; IgG only bars 0.02 to 0.2
T12 construct: also called FAM19A5 mutant M1
T12 FAM19A5 mutant: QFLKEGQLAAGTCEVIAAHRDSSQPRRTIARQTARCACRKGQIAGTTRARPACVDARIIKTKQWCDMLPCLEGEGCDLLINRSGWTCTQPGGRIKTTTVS

T4 sequence (peptide, as listed by the source mutant): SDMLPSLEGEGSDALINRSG
T1 sequence (peptide, as listed by the source mutant): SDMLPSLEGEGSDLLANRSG
T3 sequence (peptide, as listed by the source mutant): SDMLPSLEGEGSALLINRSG
T6 sequence (peptide, as listed by the source mutant): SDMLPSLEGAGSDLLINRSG
T7 sequence (peptide, as listed by the source mutant): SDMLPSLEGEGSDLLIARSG

binding result [1]: no binding
O.D (492nm) [2]: 1.5
O.D (492nm) [3]: 0.155
binding result [3]: no binding
O.D (492nm) [4]: 0.15
binding result [4]: no binding
O.D (492nm) [5]: 0.688
O.D (492nm) [6]: 1.57
O.D (492nm) [7]: 1.41
O.D (492nm) [8]: 1.64
O.D (492nm) [9]: 0.181
binding result [9]: no binding
binding result (FAM19A5 mutant M6): no binding
binding result (FAM19A5 mutant M7): no binding
binding result (FAM19A5 mutant M8): no binding
binding result (FAM19A5-M1): binds
B1: chimeric anti-FAM19A5-IgG2/4 monoclonal antibody (1-65) (antibody, V domains shown)
VH: AVTLDESGGGLQTPGGALSLVCKASGFTFSSYQMGWVRQAPGKGLEWVGVINKSGSDTSYGSAVKGRATISRDNGQSTVRLQLNNLRAEDTGTYFCAKGSASYITAATIDAWGHGTEVIVSS
VL: ALTQPSSVSANPGETVKITCSGGGSSGYGYGWYQQKSPSSAPLTVIYWNDKRPSDIPSRFSGSKSGSTHTLTITGVQAEDEAVYFCGNDDYSSDSGYVGVFGAGTTLTVL
notes: Chicken-derived variable domains; also called anti-FAM19A5 antibody 1-65; Anti-FAM19A5 (1-65)
